Reference: patent US20210269525A1 (BIOCYTOGEN PHARMACEUTICALS BEIJING, published 2021)
Read-outs that look alike come from different tables or passages of the source.

Columns and labels:
[1] = target: T1, human CD3e (T-cell surface glycoprotein CD3 epsilon chain) (human, UniProt P07766 23-207); test: cell-based or functional assay
[2] = target: T1, human CD3e (T-cell surface glycoprotein …); test: cell-based or functional assay; remark: listed apart in the source
[3] = target: T2, Histidine-tagged human CD3e protein (human, UniProt P07766 23-126); test: SPR, Biacore T200, antibody on Protein A chip, hCD3e-His injected
T2 construct: also called hCD3e-His; not shown: His tag
Description: (§1) The binding affinity of the anti-hCD3e antibodies were measured using surface plasmon resonance (SPR) using Biacore (Biacore, INC, Piscataway N.J.) T200 biosensor equipped with pre-immobilized Protein A sensor chips (Protein A (Lot:10260138)-5).
Anti-hCD3e antibodies were collected from CHO-S cells. The antibodies (1:20) were injected into Biacore T200 biosensor at 10 μL/min for 35 seconds to achieve to a desired protein density. Histidine-tagged human CD3e proteins (hCD3e-His) with different concentrations (100 nM 0.390625 nM) were then injected to the system at 30 μL/min for 150 seconds. Dissociation was monitored for 600 seconds. The chip was regenerated after the last injection of each titration with Glycine (pH 2.0, 30 μL/min for 5 seconds).

[4] = target: T3, Histidine-tagged rCD3e protein (rhesus macaque, Macaca mulatta) (rhesus macaque (Macaca mulatta), UniProt Q95LI5 22-117 (cynomolgus entry), limits assumed); test: SPR, Biacore T200, antibody on Protein A chip, rCD3e-His injected
T3 construct: also called rCD3e-His; rmCD3e; not shown: His tag
T3 chain: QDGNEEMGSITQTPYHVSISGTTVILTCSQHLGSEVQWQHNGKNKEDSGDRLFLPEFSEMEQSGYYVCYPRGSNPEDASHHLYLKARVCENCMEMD
Description: as §1
Experiments were also performed to test the binding affinities with rCD3e (rhesus macaque, or Macaca mulatta). Anti-hCD3e antibodies (1:20) were injected into Biacore T200 biosensor at 10 μL/min for 30 seconds to achieve to a desired protein density. Histidine-tagged rCD3e proteins (rCD3e-His) with different concentrations (100 nM 0.390625 nM) were then injected to the system at 30 μL/min for 150 seconds. Dissociation was monitored for 450 seconds. The chip was regenerated after the last injection of each titration with Glycine (pH 2.0, 30 μL/min for 12 seconds).

[5] = target: T4, Cynomolgus CD3 epsilon Protein, His Tag (Acrobiosystems, Cat #CDE-05226) (cynomolgus (Macaca fascicularis), UniProt Q95LI5 22-117); test: SPR (Biacore), cynomolgus CD3e His tag
T4 construct: also called monkey CD3e; not shown: His tag
T4 sequence: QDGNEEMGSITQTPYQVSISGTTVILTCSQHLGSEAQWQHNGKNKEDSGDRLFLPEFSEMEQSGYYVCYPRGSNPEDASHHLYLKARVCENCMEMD
Description: The binding affinity of the anti-hCD3e antibodies with monkey CD3e (Cynomolgus CD3 epsilon Protein (SEQ ID NO: 39 AA Gln 22-Asp 117), His Tag, Acrobiosystems, Cat #CDE-05226) were also measured using surface plasmon resonance (SPR) using Biacore (Biacore, INC, Piscataway N.J.) by the methods as described in the examples.

[6] = target: T2, Histidine-tagged human CD3e protein; test: SPR (Biacore), human CD3e; same numbers as Table 7
[7] = target: T5, monkey CD3e (Macaca fascicularis) on PBMC (Macaca fascicularis, UniProt Q95LI5 22-198); test: flow cytometry, Macaca fascicularis PBMC, antibody concentration not given, anti-human IgG Fc-Alexa Fluor647 (1:500), anti-hTcRβ-PerCP (1:30)
T5 construct: Target on PBMC from Macaca fascicularis; also called mfCD3e; monkey PBMC
Method in brief: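 Cynomolgus PBMC incubated with anti-hCD3 antibodies 15 min at 4° C, washed in PBS. Bound antibody detected with anti-human IgG Fc-Alexa Fluor647 (1:500) plus anti-hTcRβ-PerCP (1:30), 15 min at 4° C, then washed and analysed by flow cytometry.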

[8] = target: T1, human CD3e (T-cell surface glycoprotein …); test: flow cytometry, human PBMC, antibody 1 µg/mL, anti-human IgG Fc-Alexa Fluor647 (1:500), anti-hTcRβ-PerCP (1:30)
Description: (§2) PBMC cells were collected from a human subject. After being thawed, the cells were cultured for 3-4 hours. The medium was then discarded, and the cells were resuspended in phosphate-buffered saline (PBS). The cell concentration was then adjusted to 2×10⁶/25 μl PBS.
(§3) A 96-well plate was prepared. 25 ul of cell suspension was added to each well. […] The cells and the antibodies were incubated. After centrifuge, the residues were discarded. The samples were washed again. 25 ul of PBS was then added to each well to resuspend cells.
(§4) Anti-human IgG Fc-Alexa Fluror647 (1:500) and anit-hTcRβ PerCP (1:30) were then added to each well. The cells and the antibodies were incubated and then the cells were washed again by PBS. 300 ul of PBS was then added to each well to resuspend the cells. FACS was performed.

[9] = target: T2, Histidine-tagged human CD3e protein; test: SPR (Biacore), human CD3e
[10] = target: T1, human CD3e (T-cell surface glycoprotein …); test: flow cytometry, human PBMC, antibody 0.1 µg/mL, anti-human IgG Fc-Alexa Fluor647 (1:500), anti-hTcRβ-PerCP (1:30)
Description: as §2, §3, §4

[11] = target: T1, human CD3e (T-cell surface glycoprotein …); test: flow cytometry, human PBMC, antibody 10 µg/mL, anti-human IgG Fc-Alexa Fluor647 (1:500), anti-hTcRβ-PerCP (1:30)
Description: as §2
A 96-well plate was prepared. 25 ul of cell suspension was added to each well. Anti-hCD3e antibodies with different combinations of humanized 1B1 heavy chain variants and humanized 1B1 light chain variants were diluted to 20 ug/ml (2×) in PBS, and were added to the 96-well plate. The cells and the antibodies were incubated. After centrifuge, the residues were discarded. The samples were washed again. 25 ul of PBS was then added to each well to resuspend cells.
as §4

T5 sequence (Q95LI5 22-198 limits assumed): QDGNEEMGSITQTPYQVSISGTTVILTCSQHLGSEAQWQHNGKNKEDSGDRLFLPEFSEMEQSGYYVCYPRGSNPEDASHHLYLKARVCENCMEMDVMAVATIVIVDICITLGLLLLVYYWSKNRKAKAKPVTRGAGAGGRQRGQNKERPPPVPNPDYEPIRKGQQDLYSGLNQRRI

B1: Teplizumab (antibody, V domains shown)
VH: QVQLVQSGGGVVQPGRSLRLSCKASGYTFTRYTMHWVRQAPGKGLEWIGYINPSRGYTNYNQKVKDRFTISRDNSKNTAFLQMDSLRPEDTGVYFCARYYDDHYCLDYWGQGTPVTVSS
VL: DIQMTQSPSSLSASVGDRVTITCSASSSVSYMNWYQQTPGKAPKRWIYDTSKLASGVPSRFSGSGSGTDYTFTISSLQPEDIATYYCQQWSSNPFTFGQGTKLQITR
EC50, luciferase of Jurkat-Luc-NFAT cells; purified antibody [1]: 0.149 µg/mL
EC50, luciferase of Jurkat-Luc-NFAT cells; purified antibody [2]: 0.449 µg/mL

B2: C3E-25-10A4-mHvKv-IgG1-LALA (antibody, V domains shown)
VH: QVQLQQSGPELVKPGASVRISCKASGYTFTSYYIHWVKQRPGQGLEFIGWIYPGNVNAKYNEKFKGKATLTTDKSSTTAYMQLSSLTSEDSAVYFCAIKGGNYDWGQGTLVTVSA
VL: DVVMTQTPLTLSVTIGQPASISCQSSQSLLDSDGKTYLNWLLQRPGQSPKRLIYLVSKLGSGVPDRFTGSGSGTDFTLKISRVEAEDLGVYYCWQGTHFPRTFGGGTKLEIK
notes: Chimeric
Kd [3]: 5.37 nM
koff [3]: 0.000384 s⁻¹
kon [3]: 71500 M⁻¹ s⁻¹
Kd [4]: 2.05 nM
koff [4]: 0.000251 s⁻¹
kon [4]: 123000 M⁻¹ s⁻¹
Kd [5]: 9.05 nM
koff [5]: 0.000453 s⁻¹
kon [5]: 50000 M⁻¹ s⁻¹
Kd [6]: 5.37 nM
koff [6]: 0.000384 s⁻¹
kon [6]: 71500 M⁻¹ s⁻¹

B3: 1B1-H1K3-IgG1-LALA (antibody, V domains shown)
VH: QVQLVQSGAEVKKPGASVKVSCKASGYTFTSYWMHWVRQAPGQGLEWIGNIYPDSGTTNYGEKFKTRVTLTVDTSTSTAYMELSSLRSEDTAVYYCTRDTSGQYYFDYWGQGTLVTVSS
VL: DIVMTQSPDSLAVSAGERVTMNCKSSQSLLNSRTRKNYLAWYQHKPGQSPKLLIYWASTRESGVPDRFSGSGSGTDFTLTISSVQAEDVAVYYCVQSFSLRAFGGGTKLEIK
notes: Humanized; human IgG1 with LALA mutations; also called H1K3 (humanized 1B1)
upper left quadrant, percent of cells AF647+ / hTcRβ-PerCP- [7]: 83.3%
upper right quadrant, percent of cells AF647+ / hTcRβ-PerCP+ [7]: 13.6%
upper left quadrant, percent of cells AF647+ / hTcRβ-PerCP- [8]: 11%
upper right quadrant, percent of cells AF647+ / hTcRβ-PerCP+ [8]: 58.6%
Kd [9]: 3.28 nM
koff [9]: 0.00051 s⁻¹
kon [9]: 155000 M⁻¹ s⁻¹
upper left quadrant, percent of cells AF647+ / hTcRβ-PerCP- [10]: 13.9%
upper right quadrant, percent of cells AF647+ / hTcRβ-PerCP+ [10]: 50%
upper left quadrant, percent of cells AF647+ / hTcRβ-PerCP- [11]: 10.5%
upper right quadrant, percent of cells AF647+ / hTcRβ-PerCP+ [11]: 60%
Kd [5]: 4.39 nM
koff [5]: 0.000739 s⁻¹
kon [5]: 169000 M⁻¹ s⁻¹
EC50, luciferase of Jurkat-Luc-NFAT cells; antibody from supernatant [2]: > 6.94 µg/mL

B4: 1B1-H1K2-IgG1-LALA (antibody, V domains shown)
VH: QVQLVQSGAEVKKPGASVKVSCKASGYTFTSYWMHWVRQAPGQGLEWIGNIYPDSGTTNYGEKFKTRVTLTVDTSTSTAYMELSSLRSEDTAVYYCTRDTSGQYYFDYWGQGTLVTVSS
VL: DIVMTQSPDSLAVSAGERVTMNCKSSQSLLNSRTRKNYLAWYQHKPGQSPKLLIYWASTRESGVPDRFSGSGSGTDFTLTISSLQAEDVAVYYCVQSFSLRAFGGGTKVEIK
notes: Humanized; human IgG1 with LALA mutations; also called H1K2 (humanized 1B1)
upper left quadrant, percent of cells AF647+ / hTcRβ-PerCP- [7]: 80.5%
upper right quadrant, percent of cells AF647+ / hTcRβ-PerCP+ [7]: 14.9%
upper left quadrant, percent of cells AF647+ / hTcRβ-PerCP- [8]: 9.83%
upper right quadrant, percent of cells AF647+ / hTcRβ-PerCP+ [8]: 62.4%
Kd [9]: 1.2 nM
koff [9]: 0.000669 s⁻¹
kon [9]: 558000 M⁻¹ s⁻¹
upper left quadrant, percent of cells AF647+ / hTcRβ-PerCP- [10]: 11.6%
upper right quadrant, percent of cells AF647+ / hTcRβ-PerCP+ [10]: 58.1%
upper left quadrant, percent of cells AF647+ / hTcRβ-PerCP- [11]: 9.94%
upper right quadrant, percent of cells AF647+ / hTcRβ-PerCP+ [11]: 63.5%
Kd [5]: 7.59 nM
koff [5]: 0.00072 s⁻¹
kon [5]: 94900 M⁻¹ s⁻¹
EC50, luciferase of Jurkat-Luc-NFAT cells; antibody from supernatant [2]: > 3.08 µg/mL

B5: 1B1-H2K1-IgG1-LALA (antibody, V domains shown)
VH: QVQLVQSGAEVKKPGASVKLSCKASGYTFTSYWMHWVRQAPGQGLEWIGNIYPDSGTTNYGEKFKTRVTLTVDTSTSTAYMELSSLRSEDTAVYYCTRDTSGQYYFDYWGQGTLVTVSS
VL: DIVMTQSPDSLAVSAGERATMNCKSSQSLLNSRTRKNYLAWYQHKPGQSPKLLIYWASTRESGVPDRFSGSGSGTDFTLTISSLQAEDVAVYYCVQSFSLRAFGGGTKVEIK
notes: Humanized; human IgG1 with LALA mutations; also called H2K1 (humanized 1B1)
upper left quadrant, percent of cells AF647+ / hTcRβ-PerCP- [7]: 71%
upper right quadrant, percent of cells AF647+ / hTcRβ-PerCP+ [7]: 25.6%
upper left quadrant, percent of cells AF647+ / hTcRβ-PerCP- [8]: 10.8%
upper right quadrant, percent of cells AF647+ / hTcRβ-PerCP+ [8]: 61.5%
Kd [9]: 1.49 nM
koff [9]: 0.000862 s⁻¹
kon [9]: 579000 M⁻¹ s⁻¹
upper left quadrant, percent of cells AF647+ / hTcRβ-PerCP- [10]: 9.82%
upper right quadrant, percent of cells AF647+ / hTcRβ-PerCP+ [10]: 59.2%
upper left quadrant, percent of cells AF647+ / hTcRβ-PerCP- [11]: 8.53%
upper right quadrant, percent of cells AF647+ / hTcRβ-PerCP+ [11]: 65.4%
Kd [5]: 7.03 nM
koff [5]: 0.000999 s⁻¹
kon [5]: 142000 M⁻¹ s⁻¹
EC50, luciferase of Jurkat-Luc-NFAT cells; antibody from supernatant [2]: > 2.79 µg/mL

B6: 1B1-H2K3-IgG1-LALA (antibody, V domains shown)
VH: QVQLVQSGAEVKKPGASVKLSCKASGYTFTSYWMHWVRQAPGQGLEWIGNIYPDSGTTNYGEKFKTRVTLTVDTSTSTAYMELSSLRSEDTAVYYCTRDTSGQYYFDYWGQGTLVTVSS
VL: DIVMTQSPDSLAVSAGERVTMNCKSSQSLLNSRTRKNYLAWYQHKPGQSPKLLIYWASTRESGVPDRFSGSGSGTDFTLTISSVQAEDVAVYYCVQSFSLRAFGGGTKLEIK
notes: Humanized; human IgG1 with LALA mutations; also called H2K3 (humanized 1B1)
upper left quadrant, percent of cells AF647+ / hTcRβ-PerCP- [7]: 88.3%
upper right quadrant, percent of cells AF647+ / hTcRβ-PerCP+ [7]: 8.61%
upper left quadrant, percent of cells AF647+ / hTcRβ-PerCP- [8]: 10.4%
upper right quadrant, percent of cells AF647+ / hTcRβ-PerCP+ [8]: 60.6%
Kd [9]: 1.01 nM
koff [9]: 0.000651 s⁻¹
kon [9]: 644000 M⁻¹ s⁻¹
upper left quadrant, percent of cells AF647+ / hTcRβ-PerCP- [10]: 10.8%
upper right quadrant, percent of cells AF647+ / hTcRβ-PerCP+ [10]: 59.1%
upper left quadrant, percent of cells AF647+ / hTcRβ-PerCP- [11]: 10.9%
upper right quadrant, percent of cells AF647+ / hTcRβ-PerCP+ [11]: 61.2%
Kd [5]: 5.39 nM
koff [5]: 0.000591 s⁻¹
kon [5]: 110000 M⁻¹ s⁻¹
EC50, luciferase of Jurkat-Luc-NFAT cells; antibody from supernatant [2]: > 16.7 µg/mL
